From patent publication US20240409645A1 (DUALYX, published 2024)
Like-named read-outs stand apart in the source and are kept apart here.

T1: human IL-2 receptor (IL-2Rα/IL-2Rβ/γc) (human, UniProt P01589 22-272; P14784 27-551; P31785 23-369)
T1 sequence 1: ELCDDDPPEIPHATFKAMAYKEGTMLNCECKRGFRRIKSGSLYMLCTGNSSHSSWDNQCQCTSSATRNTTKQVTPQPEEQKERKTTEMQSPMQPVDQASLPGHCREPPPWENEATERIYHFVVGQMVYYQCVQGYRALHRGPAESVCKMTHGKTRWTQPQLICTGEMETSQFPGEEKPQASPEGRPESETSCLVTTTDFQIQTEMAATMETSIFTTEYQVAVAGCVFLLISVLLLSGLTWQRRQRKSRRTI
T1 sequence 2: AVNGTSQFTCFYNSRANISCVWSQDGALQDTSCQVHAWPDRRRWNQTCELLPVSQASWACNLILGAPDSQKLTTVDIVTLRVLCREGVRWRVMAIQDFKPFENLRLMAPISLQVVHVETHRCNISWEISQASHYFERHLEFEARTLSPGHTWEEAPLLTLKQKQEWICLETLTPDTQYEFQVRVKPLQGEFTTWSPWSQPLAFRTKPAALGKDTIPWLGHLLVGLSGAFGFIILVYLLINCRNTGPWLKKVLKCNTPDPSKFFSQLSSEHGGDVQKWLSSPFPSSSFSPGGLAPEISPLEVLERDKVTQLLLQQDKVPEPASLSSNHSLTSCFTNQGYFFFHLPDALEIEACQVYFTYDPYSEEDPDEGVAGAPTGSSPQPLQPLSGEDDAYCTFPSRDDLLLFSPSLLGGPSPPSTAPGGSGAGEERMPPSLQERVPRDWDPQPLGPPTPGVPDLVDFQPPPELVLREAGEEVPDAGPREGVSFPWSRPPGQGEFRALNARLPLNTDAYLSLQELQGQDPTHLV
T1 sequence 3: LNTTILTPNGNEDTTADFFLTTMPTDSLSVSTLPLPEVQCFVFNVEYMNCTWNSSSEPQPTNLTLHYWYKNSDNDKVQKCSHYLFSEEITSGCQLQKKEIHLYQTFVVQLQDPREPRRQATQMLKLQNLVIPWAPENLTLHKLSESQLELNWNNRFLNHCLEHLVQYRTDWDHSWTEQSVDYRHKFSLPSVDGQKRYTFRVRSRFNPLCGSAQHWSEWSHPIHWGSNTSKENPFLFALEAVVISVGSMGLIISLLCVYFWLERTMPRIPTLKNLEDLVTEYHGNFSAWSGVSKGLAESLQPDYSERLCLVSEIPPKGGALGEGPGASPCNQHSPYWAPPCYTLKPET

B1: DC00051 (other)
chain 1: QVQLVESGGGLVQPGGSLRLSCATSGFTFRNNFMSWVRQAPGKGLEWVSTISYGGESTTYAESVKGRFTISRDNAKNTLYLQMNNLKPEDTAVYYCAKATSYDSIRSGSRGQGTQVTVSSGGGGSGGGGSGGGGSQVQLVESGGGLVQPGGSLRLSCATSGFTFRNNFMSWVRQAPGKGLEWVSTISYGGESTTYAESVKGRFTISRDNAKNTLYLQMNNLKPEDTAVYYCAKATSYDSIRSGSRGQGTQVTVSSDKTHTCPPCPAPEAAGGPSVFLFPPKPKDTLMISRTPEVTCVVVDVSHEDPEVKFNWYVDGVEVHNAKTKPREEQYNSTYRVVSVLTVLHQDWLNGKEYKCKVSNKALGAPIEKTISKAKGQPREPQVYTLPPSRDELTKNQVSLTCLVKGFYPSDIAVEWESNGQPENNYKTTPPVLDSDGSFLLYSKLTVDKSRWQQGNVFSCSVMHEALHNHYTQKSLSLSPGK
chain 2: QVQLVESGGGLVQAGGSLTLSCAAPGRTFGTDVVGWFRQAPGKEREFVASISRSGDGIYYDDSVKGRFTISRNNAWNTVNLQMNSLKVEDTAVYYCAAGDGWSTYDYWGQGTQVTVSSGGGGSGGGGSGGGGSEVQLVESGGGLVQTGGSLRLSCAASGGTFSRDAMAWFRQVPGKEREFVALISWSGATTNYADSVKGRFAISRDNGKNTVYLQMNRLKPADTAIYYCAADRRPMGSRSYFEPTEYDDWGQGTQVTVSSGGGGSGGGGSGGGGSQVQLVESGGGLVQPGGSLRLSCATSGFTFRNNFMSWVRQAPGKGLEWVSTISYGGESTTYAESVKGRFTISRDNAKNTLYLQMNNLKPEDTAVYYCAKATSYDSIRSGSRGQGTQVTVSSDKTHTCPPCPAPEAAGGPSVFLFPPKPKDTLMISRTPEVTCVVVDVSHEDPEVKFNWYVDGVEVHNAKTKPREEQYNSTYRVVSVLTVLHQDWLNGKEYKCKVSNKALGAPIEKTISKAKGQPREPQVYTLPPSRDELTKNQVSLTCLVKGFYPSDIAVEWESNGQPENNYKTTPPVLDSDGSFFLYSRLTVDKSRWQQGNVFSCSVMHEALHNHYTQKSLSLSPGK
B2: DC00052 (other)
chain 1: B1 chain 1
chain 2: QVQLVESGGGLVQAGGSLTLSCAAPGRTFGTDVVGWFRQAPGKEREFVASISRSGDGIYYDDSVKGRFTISRNNAWNTVNLQMNSLKVEDTAVYYCAAGDGWSTYDYWGQGTQVTVSSGGGGSGGGGSGGGGSQVQLVESGGGLVQPGGSLRLSCATSGFTFRNNFMSWVRQAPGKGLEWVSTISYGGESTTYAESVKGRFTISRDNAKNTLYLQMNNLKPEDTAVYYCAKATSYDSIRSGSRGQGTQVTVSSGGGGSGGGGSGGGGSEVQLVESGGGLVQTGGSLRLSCAASGGTFSRDAMAWFRQVPGKEREFVALISWSGATTNYADSVKGRFAISRDNGKNTVYLQMNRLKPADTAIYYCAADRRPMGSRSYFEPTEYDDWGQGTQVTVSSGGGGSGGGGSGGGGSDKTHTCPPCPAPEAAGGPSVFLFPPKPKDTLMISRTPEVTCVVVDVSHEDPEVKFNWYVDGVEVHNAKTKPREEQYNSTYRVVSVLTVLHQDWLNGKEYKCKVSNKALGAPIEKTISKAKGQPREPQVYTLPPSRDELTKNQVSLTCLVKGFYPSDIAVEWESNGQPENNYKTTPPVLDSDGSFFLYSRLTVDKSRWQQGNVFSCSVMHEALHNHYTQKSLSLSPGK
B3: DC00075 (other)
chain 1: QVQLVESGGGLVQAGGSLRLSCAASGIPFDNYAMGWFRQAPGKEREFVAARDLEGIITRYGDSVKGRFTISRGNAKNTVFLQMNSLKPEDTAVYYCAARDGGVVAGSRSSAQYNYWGQGTQVTVSSDKTHTCPPCPAPEAAGGPSVFLFPPKPKDTLMISRTPEVTCVVVDVSHEDPEVKFNWYVDGVEVHNAKTKPREEQYNSTYRVVSVLTVLHQDWLNGKEYKCKVSNKALGAPIEKTISKAKGQPREPQVYTLPPSRDELTKNQVSLTCLVKGFYPSDIAVEWESNGQPENNYKTTPPVLDSDGSFLLYSKLTVDKSRWQQGNVFSCSVMHEALHNHYTQKSLSLSPGK
chain 2: EVQLVESGGGLVQTGGSLRLSCAASGGTFSRDAMAWFRQVPGKEREFVALISWSGATTNYADSVKGRFAISRDNGKNTVYLQMNRLKPADTAIYYCAADRRPMGSRSYFEPTEYDDWGQGTQVTVSSGGGGSGGGGSGGGGSQVQLVESGGGLVQPGGSLRLSCATSGFTFRNNFMSWVRQAPGKGLEWVSTISYGGESTTYAESVKGRFTISRDNAKNTLYLQMNNLKPEDTAVYYCAKATSYDSIRSGSRGQGTQVTVSSGGGGSGGGGSGGGGSQVQLVESGGGLVQAGGSLTLSCAAPGRTFGTDVVGWFRQAPGKEREFVASISRSGDGIYYDDSVKGRFTISRNNAWNTVNLQMNSLKVEDTAVYYCAAGDGWSTYDYWGQGTQVTVSSGGGGSGGGGSGGGGSDKTHTCPPCPAPEAAGGPSVFLFPPKPKDTLMISRTPEVTCVVVDVSHEDPEVKFNWYVDGVEVHNAKTKPREEQYNSTYRVVSVLTVLHQDWLNGKEYKCKVSNKALGAPIEKTISKAKGQPREPQVYTLPPSRDELTKNQVSLTCLVKGFYPSDIAVEWESNGQPENNYKTTPPVLDSDGSFFLYSRLTVDKSRWQQGNVFSCSVMHEALHNHYTQKSLSLSPGK
B4: DC00076 (other)
chain 1: B3 chain 1
chain 2: QVQLVESGGGLVQPGGSLRLSCATSGFTFRNNFMSWVRQAPGKGLEWVSTISYGGESTTYAESVKGRFTISRDNAKNTLYLQMNNLKPEDTAVYYCAKATSYDSIRSGSRGQGTQVTVSSGGGGSGGGGSGGGGSQVQLVESGGGLVQAGGSLTLSCAAPGRTFGTDVVGWFRQAPGKEREFVASISRSGDGIYYDDSVKGRFTISRNNAWNTVNLQMNSLKVEDTAVYYCAAGDGWSTYDYWGQGTQVTVSSGGGGSGGGGSGGGGSEVQLVESGGGLVQTGGSLRLSCAASGGTFSRDAMAWFRQVPGKEREFVALISWSGATTNYADSVKGRFAISRDNGKNTVYLQMNRLKPADTAIYYCAADRRPMGSRSYFEPTEYDDWGQGTQVTVSSGGGGSGGGGSGGGGSDKTHTCPPCPAPEAAGGPSVFLFPPKPKDTLMISRTPEVTCVVVDVSHEDPEVKFNWYVDGVEVHNAKTKPREEQYNSTYRVVSVLTVLHQDWLNGKEYKCKVSNKALGAPIEKTISKAKGQPREPQVYTLPPSRDELTKNQVSLTCLVKGFYPSDIAVEWESNGQPENNYKTTPPVLDSDGSFFLYSRLTVDKSRWQQGNVFSCSVMHEALHNHYTQKSLSLSPGK
B5: DC00077 (other)
chain 1: B3 chain 1
chain 2: QVQLVESGGGLVQPGGSLRLSCATSGFTFRNNFMSWVRQAPGKGLEWVSTISYGGESTTYAESVKGRFTISRDNAKNTLYLQMNNLKPEDTAVYYCAKATSYDSIRSGSRGQGTQVTVSSGGGGSGGGGSGGGGSEVQLVESGGGLVQTGGSLRLSCAASGGTFSRDAMAWFRQVPGKEREFVALISWSGATTNYADSVKGRFAISRDNGKNTVYLQMNRLKPADTAIYYCAADRRPMGSRSYFEPTEYDDWGQGTQVTVSSGGGGSGGGGSGGGGSQVQLVESGGGLVQAGGSLTLSCAAPGRTFGTDVVGWFRQAPGKEREFVASISRSGDGIYYDDSVKGRFTISRNNAWNTVNLQMNSLKVEDTAVYYCAAGDGWSTYDYWGQGTQVTVSSGGGGSGGGGSGGGGSDKTHTCPPCPAPEAAGGPSVFLFPPKPKDTLMISRTPEVTCVVVDVSHEDPEVKFNWYVDGVEVHNAKTKPREEQYNSTYRVVSVLTVLHQDWLNGKEYKCKVSNKALGAPIEKTISKAKGQPREPQVYTLPPSRDELTKNQVSLTCLVKGFYPSDIAVEWESNGQPENNYKTTPPVLDSDGSFFLYSRLTVDKSRWQQGNVFSCSVMHEALHNHYTQKSLSLSPGK

How the values were obtained:
[1] = target: T1, human IL-2 receptor (IL-2Rα/IL-2Rβ/γc); assay: cell-based or functional assay
[2] = target: T1, human IL-2 receptor (IL-2Rα/IL-2Rβ/γc); assay: cell-based or functional assay; remark: listed apart in the source

Binder	EC50 (nM) pSTAT5, NK, human PBMCs [1] [nM]	EC50 (nM) pSTAT5, Treg, human PBMCs [1]	Fold Max signal (% pSTAT5+) Treg/NK [1] [fold]	Max signal (% pSTAT5+), NK [1] [% pSTAT5+]	Max signal (% pSTAT5+), Treg [1] [% pSTAT5+]	fold EC50 NK/Treg [1] [fold]	EC50 (nM) pSTAT5, NK, human PBMCs [2]	EC50 (nM) pSTAT5, Treg, human PBMCs [2] [pM]	Fold Max signal (% pSTAT5+) Treg/NK [2] [fold]	Max signal (% pSTAT5+), NK [2] [% pSTAT5+]	Max signal (% pSTAT5+), Treg [2] [% pSTAT5+]	fold EC50 NK/Treg [2] [fold]
B1	0.191	< 0.1 pM	3	33	96	> 1910						
B2	0.0812	0.00403 nM	8	9	79	20						
B3							0.0032 nM	< 0.1	12	4.31	53.1	> 32
B4							2.42 nM	< 0.1	4	14	59.4	> 24200
B5							0.191 pM	< 0.1	7	7.96	58.4	> 1.91
